Earlier results as cited in patent US20020119948A1, “METHOD FOR EXTENDING THE SATIETY OF FOOD BY ADDING A NUTRITIONAL COMPOSITION DESIGNED TO STIMULATE CHOLECYSTOKININ(CCK)” (PacificHealth Laboratories, Inc., priority 2000, published 2002).

Tested on: Individuals
Details: CCK administered by injection

B1: cholecystokinin (peptide, UniProt P06307 21-115, looked up)
Cholecystokinin: QPVPPADPAGSGLQRAEEAPRRQLRVSQRTDGESRAHLGALLARYIQQARKAPSGRMSIVKNLQNLDPSHRISDRDYMGWMDFGRRSAEEYEYPS
modifications: Cholecystokinin
- decrease in caloric intake: 16-22%
